Data on 1 substance can be found in publication PMC7921634.

Test [1] deals with S-Trimer (ectodomain of wild-type SARS-CoV-2 Spike protein fused to Trimer-Tag) (SARS-CoV-2 | human) (UniProt P0DTC2). Description: negative-stain electron microscopy; S-Trimer 25 μg/mL in PBS adjusted to pH 5.5; 1% uranyl formate pH 4.0; FEI Tecnai spirit, 120 KeV.
Test [2] has as its target ACE2-Fc (soluble human ACE2 fused to human IgG Fc) (human) (UniProt Q9BYF1). As to the kind of experiment: BLI; ForteBio Octet QKe; ACE2-Fc (10 µg/mL) immobilized on Protein A biosensors; 2-fold serial dilutions of S-Trimer (22.5–36 µg/mL in PBS); KD by steady state analysis, 1:1 binding model. In general terms: Biolayer interferometry detects binding as a change in optical thickness at a sensor tip.

Test [3] addresses S-Trimer (ectodomain of wild-type SARS-CoV-2 Spike protein fused to Trimer-Tag) (SARS-CoV-2 | human) (UniProt P0DTC2). Description: SDS-PAGE under non-reducing and reducing conditions.

Chain of ACE2-Fc (soluble human ACE2 fused to human IgG Fc) (human) (Q9BYF1 18-738): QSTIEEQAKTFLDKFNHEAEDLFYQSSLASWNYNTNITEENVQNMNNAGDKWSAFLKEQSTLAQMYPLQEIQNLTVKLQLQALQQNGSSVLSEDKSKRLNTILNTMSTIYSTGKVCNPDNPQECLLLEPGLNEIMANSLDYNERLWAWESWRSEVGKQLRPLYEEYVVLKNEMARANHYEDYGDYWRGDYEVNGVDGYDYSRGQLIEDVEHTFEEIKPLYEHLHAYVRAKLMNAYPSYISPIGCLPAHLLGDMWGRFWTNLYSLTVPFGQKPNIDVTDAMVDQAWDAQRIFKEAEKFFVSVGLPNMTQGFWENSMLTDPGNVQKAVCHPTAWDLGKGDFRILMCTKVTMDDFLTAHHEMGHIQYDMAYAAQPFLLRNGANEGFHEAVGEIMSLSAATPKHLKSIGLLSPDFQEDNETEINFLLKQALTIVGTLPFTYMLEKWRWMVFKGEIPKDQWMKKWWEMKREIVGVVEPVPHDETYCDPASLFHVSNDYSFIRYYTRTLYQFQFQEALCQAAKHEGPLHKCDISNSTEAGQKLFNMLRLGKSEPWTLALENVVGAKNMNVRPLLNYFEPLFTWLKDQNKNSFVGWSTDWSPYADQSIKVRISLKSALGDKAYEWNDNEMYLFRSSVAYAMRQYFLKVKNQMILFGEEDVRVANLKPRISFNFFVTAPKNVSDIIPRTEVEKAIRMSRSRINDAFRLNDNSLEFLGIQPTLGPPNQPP

As for “S-Trimer (ectodomain of wild-type SARS-CoV-2 Spike protein fused to Trimer-Tag) (from UniProt P0DTC2;P02452)”, the stoichiometry N in test [1] and in test [3] was 3 throughout. In test [2], this substance had a Kd of 1.33 nM.

The stoichiometry N is the number of molecules, sites or subunits per partner or assembly. Broadly, the Kd is the free concentration of one partner at which half of the binding sites on the other are occupied at equilibrium, for simple one-to-one binding. Read a high Kd as weaker binding.
